Tested on: Escherichia coli TOP10
Test: shrunken log2 fold change of peptide-encoding DNA abundance (4.5 h post-induction vs induction); higher = less antimicrobial activity (less host growth inhibition)
Details: time post-induction: 4.5 h; library: site-saturation at positions 5, 18, 19, 20
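Also: peptides expressed intracellularly from a pBAD plasmid library in pooled LB shake-flask culture, induced with 0.3% L-arabinose, DNA abundance read by NGS, three biological replicates, DESeq2 with apeglm shrinkage.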

For RRIRRRPPRLPRPRPRPTHLPRP, the “shrunken log2 fold change” value was 0.578.

For RRIRRRPPRLPRPRPRPTHYPRP, the “shrunken log2 fold change” value was 1.2.

With RRIRRRPPRLPRPRPRPTIPPRP the “shrunken log2 fold change” value was -0.0701.

With RRIRRRPPRLPRPRPRPTKVPRP the “shrunken log2 fold change” value was 0.118.

RRIRRRPPRLPRPRPRPTLKPRP was tested, and the “shrunken log2 fold change” value was 0.379.

For RRIRRRPPRLPRPRPRPTMHPRP, the “shrunken log2 fold change” value was 0.539.

For RRIRRRPPRLPRPRPRPTNEPRP, the “shrunken log2 fold change” value was 0.0166.

In the case of RRIRRRPPRLPRPRPRPTNWPRP, the “shrunken log2 fold change” value is reported as 0.37.

For RRIRRRPPRLPRPRPRPTPAPRP, the “shrunken log2 fold change” value was 1.55.

In the case of RRIRRRPPRLPRPRPRPTQAPRP, the “shrunken log2 fold change” value is reported as -0.0717.

RRIRRRPPRLPRPRPRPTQRPRP was tested, and the “shrunken log2 fold change” value was 0.625.

With RRIRRRPPRLPRPRPRPTRAPRP the “shrunken log2 fold change” value was 0.738.

In the case of RRIRRRPPRLPRPRPRPTRCPRP, the “shrunken log2 fold change” value is reported as 0.661.

For RRIRRRPPRLPRPRPRPTTDPRP, the “shrunken log2 fold change” value was 0.647.

With RRIRRRPPRLPRPRPRPTVHPRP the “shrunken log2 fold change” value was 0.231.

RRIRRRPPRLPRPRPRPTWEPRP was tested, and the “shrunken log2 fold change” value was 0.0289.

With RRIRRRPPRLPRPRPRPTWFPRP the “shrunken log2 fold change” value was 0.0478.

With RRIRRRPPRLPRPRPRPTWTPRP the “shrunken log2 fold change” value was 0.464.

For RRIRRRPPRLPRPRPRPTWYPRP, the “shrunken log2 fold change” value was 0.0312.

For RRIRRRPPRLPRPRPRPVAEPRP, the “shrunken log2 fold change” value was 0.663.

For RRIRRRPPRLPRPRPRPVAPPRP, the “shrunken log2 fold change” value was 0.436.

RRIRRRPPRLPRPRPRPVCTPRP was tested, and the “shrunken log2 fold change” value was 0.575.

For RRIRRRPPRLPRPRPRPVDFPRP, the “shrunken log2 fold change” value was 0.178.

For RRIRRRPPRLPRPRPRPVEFPRP, the “shrunken log2 fold change” value was 0.0107.

With RRIRRRPPRLPRPRPRPVEKPRP the “shrunken log2 fold change” value was -0.00451.

RRIRRRPPRLPRPRPRPVEQPRP was tested, and the “shrunken log2 fold change” value was 0.0679.

In the case of RRIRRRPPRLPRPRPRPVEYPRP, the “shrunken log2 fold change” value is reported as -0.00275.

For RRIRRRPPRLPRPRPRPVFQPRP, the “shrunken log2 fold change” value was 0.00379.

For RRIRRRPPRLPRPRPRPVGIPRP, the “shrunken log2 fold change” value was 0.12.

With RRIRRRPPRLPRPRPRPVGQPRP the “shrunken log2 fold change” value was 0.0153.

With RRIRRRPPRLPRPRPRPVHTPRP the “shrunken log2 fold change” value was 0.0317.

RRIRRRPPRLPRPRPRPVITPRP was tested, and the “shrunken log2 fold change” value was -0.554.

In the case of RRIRRRPPRLPRPRPRPVKPPRP, the “shrunken log2 fold change” value is reported as 0.265.

In the case of RRIRRRPPRLPRPRPRPVKQPRP, the “shrunken log2 fold change” value is reported as -0.0104.

In the case of RRIRRRPPRLPRPRPRPVLTPRP, the “shrunken log2 fold change” value is reported as 0.386.

For RRIRRRPPRLPRPRPRPVMKPRP, the “shrunken log2 fold change” value was -0.025.

RRIRRRPPRLPRPRPRPVMSPRP was tested, and the “shrunken log2 fold change” value was 0.042.

For RRIRRRPPRLPRPRPRPVNRPRP, the “shrunken log2 fold change” value was -0.0157.

In the case of RRIRRRPPRLPRPRPRPVNWPRP, the “shrunken log2 fold change” value is reported as 0.439.

RRIRRRPPRLPRPRPRPVNYPRP was tested, and the “shrunken log2 fold change” value was -0.291.

For RRIRRRPPRLPRPRPRPVQDPRP, the “shrunken log2 fold change” value was 0.252.

With RRIRRRPPRLPRPRPRPVQIPRP the “shrunken log2 fold change” value was 0.14.

RRIRRRPPRLPRPRPRPVSVPRP was tested, and the “shrunken log2 fold change” value was 0.308.

With RRIRRRPPRLPRPRPRPVVMPRP the “shrunken log2 fold change” value was -0.0785.

In the case of RRIRRRPPRLPRPRPRPVWLPRP, the “shrunken log2 fold change” value is reported as 0.175.

In the case of RRIRRRPPRLPRPRPRPVYEPRP, the “shrunken log2 fold change” value is reported as 0.15.

In the case of RRIRRRPPRLPRPRPRPWCFPRP, the “shrunken log2 fold change” value is reported as -0.0808.

RRIRRRPPRLPRPRPRPWCWPRP was tested, and the “shrunken log2 fold change” value was 0.123.

For RRIRRRPPRLPRPRPRPWDKPRP, the “shrunken log2 fold change” value was 0.0425.

For RRIRRRPPRLPRPRPRPWDVPRP, the “shrunken log2 fold change” value was -0.149.

With RRIRRRPPRLPRPRPRPWEFPRP the “shrunken log2 fold change” value was 0.00288.

RRIRRRPPRLPRPRPRPWFAPRP was tested, and the “shrunken log2 fold change” value was 0.204.

In the case of RRIRRRPPRLPRPRPRPWFLPRP, the “shrunken log2 fold change” value is reported as -0.19.

RRIRRRPPRLPRPRPRPWGIPRP was tested, and the “shrunken log2 fold change” value was -0.24.

For RRIRRRPPRLPRPRPRPWHMPRP, the “shrunken log2 fold change” value was 0.0729.

In the case of RRIRRRPPRLPRPRPRPWHQPRP, the “shrunken log2 fold change” value is reported as -0.111.

With RRIRRRPPRLPRPRPRPWLWPRP the “shrunken log2 fold change” value was 0.0836.

RRIRRRPPRLPRPRPRPWNRPRP was tested, and the “shrunken log2 fold change” value was -0.049.

With RRIRRRPPRLPRPRPRPWNTPRP the “shrunken log2 fold change” value was -0.214.

RRIRRRPPRLPRPRPRPWPFPRP was tested, and the “shrunken log2 fold change” value was -0.0442.

With RRIRRRPPRLPRPRPRPWSWPRP the “shrunken log2 fold change” value was -0.0122.

RRIRRRPPRLPRPRPRPWTSPRP was tested, and the “shrunken log2 fold change” value was -0.0576.

For RRIRRRPPRLPRPRPRPWVHPRP, the “shrunken log2 fold change” value was 0.000557.

For RRIRRRPPRLPRPRPRPWYYPRP, the “shrunken log2 fold change” value was -0.293.

For RRIRRRPPRLPRPRPRPYAAPRP, the “shrunken log2 fold change” value was 0.395.

RRIRRRPPRLPRPRPRPYAFPRP was tested, and the “shrunken log2 fold change” value was 0.0067.

In the case of RRIRRRPPRLPRPRPRPYAWPRP, the “shrunken log2 fold change” value is reported as 0.157.

With RRIRRRPPRLPRPRPRPYDMPRP the “shrunken log2 fold change” value was -0.532.

RRIRRRPPRLPRPRPRPYEVPRP was tested, and the “shrunken log2 fold change” value was -0.0692.

For RRIRRRPPRLPRPRPRPYFNPRP, the “shrunken log2 fold change” value was -0.2.

With RRIRRRPPRLPRPRPRPYFQPRP the “shrunken log2 fold change” value was -0.189.

With RRIRRRPPRLPRPRPRPYHFPRP the “shrunken log2 fold change” value was -0.116.

For RRIRRRPPRLPRPRPRPYHWPRP, the “shrunken log2 fold change” value was -0.48.

With RRIRRRPPRLPRPRPRPYHYPRP the “shrunken log2 fold change” value was -0.717.

In the case of RRIRRRPPRLPRPRPRPYKSPRP, the “shrunken log2 fold change” value is reported as -0.239.

With RRIRRRPPRLPRPRPRPYNHPRP the “shrunken log2 fold change” value was -0.8.

For RRIRRRPPRLPRPRPRPYQCPRP, the “shrunken log2 fold change” value was 0.0675.

RRIRRRPPRLPRPRPRPYSIPRP was tested, and the “shrunken log2 fold change” value was 0.0088.

RRIRRRPPRLPRPRPRPYTDPRP was tested, and the “shrunken log2 fold change” value was -0.0165.

With RRIRRRPPRLPRPRPRPYTVPRP the “shrunken log2 fold change” value was -0.325.

With RRIRRRPPRLPRPRPRPYWIPRP the “shrunken log2 fold change” value was -0.918.

For RRIRRRPPRLPRPRPRPYWMPRP, the “shrunken log2 fold change” value was -0.205.

With RRIRRRPPRLPRPRPRPYYEPRP the “shrunken log2 fold change” value was -0.572.

With RRIRSRPPRLPRPRPRPACCPRP the “shrunken log2 fold change” value was 0.303.

For RRIRSRPPRLPRPRPRPADQPRP, the “shrunken log2 fold change” value was 0.58.

For RRIRSRPPRLPRPRPRPAEQPRP, the “shrunken log2 fold change” value was 0.0415.

In the case of RRIRSRPPRLPRPRPRPAFSPRP, the “shrunken log2 fold change” value is reported as -0.145.

In the case of RRIRSRPPRLPRPRPRPAIHPRP, the “shrunken log2 fold change” value is reported as -0.912.

In the case of RRIRSRPPRLPRPRPRPAIPPRP, the “shrunken log2 fold change” value is reported as -0.139.

With RRIRSRPPRLPRPRPRPALYPRP the “shrunken log2 fold change” value was -0.124.

With RRIRSRPPRLPRPRPRPAMCPRP the “shrunken log2 fold change” value was -0.185.

With RRIRSRPPRLPRPRPRPAMDPRP the “shrunken log2 fold change” value was 0.0404.

RRIRSRPPRLPRPRPRPANKPRP was tested, and the “shrunken log2 fold change” value was -0.283.

With RRIRSRPPRLPRPRPRPANQPRP the “shrunken log2 fold change” value was -0.116.

RRIRSRPPRLPRPRPRPAPLPRP was tested, and the “shrunken log2 fold change” value was 0.163.

With RRIRSRPPRLPRPRPRPAQEPRP the “shrunken log2 fold change” value was 0.0123.

With RRIRSRPPRLPRPRPRPAQHPRP the “shrunken log2 fold change” value was 0.0967.

RRIRSRPPRLPRPRPRPARHPRP was tested, and the “shrunken log2 fold change” value was 0.277.

With RRIRSRPPRLPRPRPRPASEPRP the “shrunken log2 fold change” value was -0.00793.

For RRIRSRPPRLPRPRPRPATPPRP, the “shrunken log2 fold change” value was 0.373.

With RRIRSRPPRLPRPRPRPAVHPRP the “shrunken log2 fold change” value was 0.0588.

RRIRSRPPRLPRPRPRPAVQPRP was tested, and the “shrunken log2 fold change” value was -0.0326.

For RRIRSRPPRLPRPRPRPAWIPRP, the “shrunken log2 fold change” value was -0.0375.

RRIRSRPPRLPRPRPRPAWYPRP was tested, and the “shrunken log2 fold change” value was -0.3.

For RRIRSRPPRLPRPRPRPAYMPRP, the “shrunken log2 fold change” value was -0.608.

In the case of RRIRSRPPRLPRPRPRPAYQPRP, the “shrunken log2 fold change” value is reported as -0.151.

For RRIRSRPPRLPRPRPRPCAMPRP, the “shrunken log2 fold change” value was -0.173.

RRIRSRPPRLPRPRPRPCCCPRP was tested, and the “shrunken log2 fold change” value was -0.000964.

RRIRSRPPRLPRPRPRPCDKPRP was tested, and the “shrunken log2 fold change” value was -0.324.
